Reference: US20210122824A1 (ADAGENE, published 2021)

Key:
[1] = biological target: T1, human PD-L1-Fc fusion protein (Sino Biological Cat #10084-H02H) (human, UniProt Q9NZQ7 19-239); test: competition ELISA, PD1-Fc (1 ug/mL) coated, biotinylated PD-L1-Fc mixed with antibody, HRP neutravidin; blocked ligand PD1-Fc
T1 construct: bought; not shown: Fc part of the bought fusion

[2] = biological target: T2, human PD1 expressed on HEK293F cells (human, UniProt Q15116 25-288); test: flow cytometry, HEK293F cells transiently expressing the target, 100 nM antibody, PE anti-human Fc; Mean (PE-A against FITC-A, GFP surrogate)
T2 construct: whole, on cells
T2 sequence (Q15116 25-288): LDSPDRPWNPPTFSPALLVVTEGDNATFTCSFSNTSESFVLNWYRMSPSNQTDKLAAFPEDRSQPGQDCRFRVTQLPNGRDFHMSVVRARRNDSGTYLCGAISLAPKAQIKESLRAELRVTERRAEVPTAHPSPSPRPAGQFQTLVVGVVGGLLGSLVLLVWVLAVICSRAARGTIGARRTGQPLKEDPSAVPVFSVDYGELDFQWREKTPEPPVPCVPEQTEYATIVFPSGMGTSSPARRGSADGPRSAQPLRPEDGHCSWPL

[3] = biological target: T3, rhesus PD-L1 expressed on HEK293F cells (rhesus, UniProt F6VEW6 19-290); test: as above
T3 construct: whole, on cells

[4] = biological target: T4, human PD-L1 expressed on cell surface (human, UniProt Q9NZQ7 19-290); test: as above
T4 construct: whole, on cells; also called full-length human PD-L1; cell surface PD-L1
T4 sequence (Q9NZQ7 19-290): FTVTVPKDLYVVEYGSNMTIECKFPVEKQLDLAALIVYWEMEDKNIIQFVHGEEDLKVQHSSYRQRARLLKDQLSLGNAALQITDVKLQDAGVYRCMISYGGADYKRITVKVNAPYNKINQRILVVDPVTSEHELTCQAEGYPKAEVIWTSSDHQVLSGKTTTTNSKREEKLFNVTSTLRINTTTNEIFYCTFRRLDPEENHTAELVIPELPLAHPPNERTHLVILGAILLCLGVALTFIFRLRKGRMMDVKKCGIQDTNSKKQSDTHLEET

[5] = biological target: T4, human PD-L1 expressed on cell surface; test: flow cytometry on stable cell line 293T-002 expressing PD-L1; 293T-002 cells expressing PD-L1, flow cytometry
[6] = biological target: T5, mouse PD-L1-Fc fusion protein (mouse, UniProt Q9EP73 19-238, limits assumed); test: SPR (Biacore T200), PD-L1-Fc immobilized (about 500 RU), IgG in solution
T5 construct: not shown: Fc part
T5 sequence (Q9EP73 19-238 limits assumed): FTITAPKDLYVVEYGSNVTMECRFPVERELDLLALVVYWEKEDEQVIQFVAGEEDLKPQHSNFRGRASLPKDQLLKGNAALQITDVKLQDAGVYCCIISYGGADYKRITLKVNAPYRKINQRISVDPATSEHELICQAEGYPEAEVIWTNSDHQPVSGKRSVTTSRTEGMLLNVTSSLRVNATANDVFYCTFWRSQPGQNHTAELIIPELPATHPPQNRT

[7] = biological target: T1, human PD-L1-Fc fusion protein (Sino …); test: as above
[8] = biological target: T6, rat PD-L1-Fc fusion protein (Sino Biological cat #80450-R08H) (rat); test: as above
T6 construct: text calls all four immobilized proteins PD-L1-Fc fusion proteins

[9] = biological target: T7, rhesus PD-L1-Fc fusion protein (Sino Biological cat #90251-C02H) (rhesus, UniProt F6PJN1 19-239); test: as above
T7 construct: not shown: Fc part

[10] = biological target: T1, human PD-L1-Fc fusion protein (Sino …); test: SPR (Biacore T200), human PD-L1-Fc immobilized (300 RU), IgG in solution
[11] = biological target: T8, human LAG3 expressed on HEK293F cells (human, UniProt P18627 23-525); test: flow cytometry on transfected HEK293F cells
T8 construct: whole, on cells
T8 sequence (looked up): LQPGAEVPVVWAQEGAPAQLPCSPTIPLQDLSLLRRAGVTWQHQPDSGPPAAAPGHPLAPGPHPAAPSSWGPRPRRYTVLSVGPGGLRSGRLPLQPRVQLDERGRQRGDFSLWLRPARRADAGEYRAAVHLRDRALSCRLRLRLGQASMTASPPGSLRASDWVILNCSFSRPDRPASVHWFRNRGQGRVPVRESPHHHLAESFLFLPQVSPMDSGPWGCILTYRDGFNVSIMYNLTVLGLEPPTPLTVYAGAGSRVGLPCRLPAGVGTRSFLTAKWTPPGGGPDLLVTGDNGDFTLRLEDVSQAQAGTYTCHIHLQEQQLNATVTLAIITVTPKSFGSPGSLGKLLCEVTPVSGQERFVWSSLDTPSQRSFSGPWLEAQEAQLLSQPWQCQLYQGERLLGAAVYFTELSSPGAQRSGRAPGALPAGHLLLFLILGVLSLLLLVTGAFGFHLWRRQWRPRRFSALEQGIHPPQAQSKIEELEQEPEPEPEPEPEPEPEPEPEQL

[12] = biological target: T9, human B7-H3 expressed on HEK293F cells (human, UniProt Q5ZPR3 29-534); test: flow cytometry on transfected HEK293F cells
T9 construct: whole, on cells
T9 sequence (looked up): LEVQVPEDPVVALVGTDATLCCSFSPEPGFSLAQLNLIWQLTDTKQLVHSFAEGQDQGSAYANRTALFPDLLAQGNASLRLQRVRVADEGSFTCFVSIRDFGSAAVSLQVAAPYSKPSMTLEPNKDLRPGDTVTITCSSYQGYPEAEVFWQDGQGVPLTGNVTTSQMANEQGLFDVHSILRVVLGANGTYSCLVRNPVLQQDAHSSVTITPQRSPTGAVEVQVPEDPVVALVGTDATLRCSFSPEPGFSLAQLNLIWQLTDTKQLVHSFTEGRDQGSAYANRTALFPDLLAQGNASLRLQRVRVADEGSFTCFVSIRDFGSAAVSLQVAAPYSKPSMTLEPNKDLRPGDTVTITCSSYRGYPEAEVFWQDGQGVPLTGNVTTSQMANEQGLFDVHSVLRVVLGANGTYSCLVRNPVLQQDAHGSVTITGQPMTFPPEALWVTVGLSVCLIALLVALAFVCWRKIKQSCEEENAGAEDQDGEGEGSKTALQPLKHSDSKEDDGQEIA

[13] = biological target: T2, human PD1 expressed on HEK293F cells; test: flow cytometry on transfected HEK293F cells
[14] = biological target: T10, human TIM3 expressed on HEK293F cells (human, UniProt Q8TDQ0 22-301); test: flow cytometry on transfected HEK293F cells
T10 construct: whole, on cells

[15] = biological target: T11, human CTLA4 expressed on HEK293F cells (human, UniProt P16410 36-223); test: flow cytometry on transfected HEK293F cells
T11 construct: whole, on cells
T11 sequence (P16410 36-223): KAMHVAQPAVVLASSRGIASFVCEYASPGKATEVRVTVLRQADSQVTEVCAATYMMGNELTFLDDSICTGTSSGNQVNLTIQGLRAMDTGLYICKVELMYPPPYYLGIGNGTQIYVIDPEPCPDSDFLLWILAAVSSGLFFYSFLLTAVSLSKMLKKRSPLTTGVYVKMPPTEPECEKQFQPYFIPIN

[16] = biological target: T4, human PD-L1 expressed on cell surface; test: cell ELISA on HCC827 cells fixed with 4% paraformaldehyde, absorbance at 450 nm

T1 sequence (Q9NZQ7 19-239 limits assumed): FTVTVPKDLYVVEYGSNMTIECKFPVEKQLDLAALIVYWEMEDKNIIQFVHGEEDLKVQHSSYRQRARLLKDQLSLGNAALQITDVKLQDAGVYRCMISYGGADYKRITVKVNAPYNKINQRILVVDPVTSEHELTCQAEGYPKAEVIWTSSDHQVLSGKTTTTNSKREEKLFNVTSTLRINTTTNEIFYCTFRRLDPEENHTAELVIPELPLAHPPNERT

- IC50 (read off the curve) [1]: ~6 nM
- Mean [2]: 6980
- Mean [3]: 184000
- Mean [4]: 170000
- EC50 [5]: 1.08 nM
- Kd [6]: 0.00186 nM
- koff [6]: 2.06e-05 s⁻¹
- kon [6]: 1.11e+07 M⁻¹ s⁻¹
- Kd [7]: 0.00619 nM
- koff [7]: 2.97e-05 s⁻¹
- kon [7]: 4.8e+06 M⁻¹ s⁻¹
- Kd [8]: 0.0209 nM
- koff [8]: 0.000106 s⁻¹
- kon [8]: 5.07e+06 M⁻¹ s⁻¹
- Kd [9]: 0.00185 nM
- koff [9]: 7.27e-06 s⁻¹
- kon [9]: 3.93e+06 M⁻¹ s⁻¹
- Kd [10]: 0.00863 nM
- koff [10]: 5.73e-05 s⁻¹
- kon [10]: 6.64e+06 M⁻¹ s⁻¹
- binding result [11]: no binding (tested: 100 nM)
- binding result [12]: no binding (tested: 100 nM)
- binding result [13]: no binding (tested: 100 nM)
- binding result [14]: no binding (tested: 100 nM)
- binding result [15]: no binding (tested: 100 nM)
- EC50 [16]: 0.3 nM
B1: TY21421 (antibody, V domains shown)
VH: EVQLVESGGGLVQPGGSLRLSCAASGYSISSGYYWGWIRQAPGKGLEWIGIIYPSGGGTNYAQKFQGRVTISRDNSKNTLYLQLNSLRAEDTAVYYCARGGGLGFDYWGQGTLVTVSS
VL: DIQLTQSPSSLSASVGDRVTITCRASQSIPSFLNWYQQKPGKAPKLLIYAASSLQSGVPSRFSGSGSGTDFTLTISSLQPEDFATYYCQHYISWPRQFTFGQGTKVEIKR
notes: IgG1 (wild type) made from Fab B15041, from HEK293F cells
